Two molecules from patent US20020164600A1 (Dana-Farber, published 2002) can be followed below.

B2: IgG2a (control Ig) (other, mouse, UniProt P01863 98-330, looked up)
chain: EPRGPTIKPCPPCKCPAPNLLGGPSVFIFPPKIKDVLMISLSPIVTCVVVDVSEDDPDVQISWFVNNVEVHTAQTQTHREDYNSTLRVVSALPIQHQDWMSGKEFKCKVNNKDLPAPIERTISKPKGSVRAPQVYVLPPPEEEMTKKQVTLTCMVTDFMPEDIYVEWTNNGKTELNYKNTEPVLDSDGSYFMYSKLRVEKKNWVERNSYSCSVVHEGLHNHHTTKSFSRTPGK
notes: Control protein

In the experiment “IgG2a (control Ig)” the target is B2. Briefly: FACS on transfected COS cells.
The target of another experiment is T1, human PD-L2 (human, UniProt Q9BQ51 20-273).
T1 construct: Expressed on transfected COS and 300.19 cells (300-hPD-L2); also called hPD-L2
T1 sequence: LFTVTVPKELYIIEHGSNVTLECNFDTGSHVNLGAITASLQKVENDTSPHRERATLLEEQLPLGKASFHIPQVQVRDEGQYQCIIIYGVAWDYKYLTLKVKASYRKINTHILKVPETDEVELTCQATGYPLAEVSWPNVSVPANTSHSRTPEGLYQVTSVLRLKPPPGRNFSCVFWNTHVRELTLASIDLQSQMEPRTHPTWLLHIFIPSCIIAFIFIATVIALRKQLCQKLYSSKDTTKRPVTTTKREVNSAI
Briefly: FACS on transfected COS cells.

B1: mouse PD-L2 (ligand)
chain: LFTVTAPKEVYTVDVGSSVSLECDFDRRECTELEGIRASLQKVENDTSLQSERATLLEEQLPLGKALFHIPSVQVRDSGQYRCLVICGAAWDYKYLTVKVKASYMRIDTRILEVPGTGEVQLTCQARGYPLAEVSWQNVSVPANTSHIRTPEGLYQVTSVLRLKPQPSRNFSCMFWNAHMKELTSAIIDPLSRMEPKVPRTWPLHVFIPACTIALIFLAIVIIQRKRI
notes: Expressed on transfected COS, CHO.I-A^d, CHO.I-A^d.B7-2 and 300.19 cells; also called murine PD-L2; mPD-L2
For B1, the binding result in the experiment with IgG2a (control Ig) is listed as “no binding”. B2: the binding result in the experiment with human PD-L2 is “no binding”.
